Experimental findings from patent US7265091B2, “Methods and compositions for treating male erectile dysfunction” (The Regents of the University of California, priority 2000, dated 2007) are described below.

Data set [1] concerns venogenic erectile dysfunction in castrated rats. The experiment in a line: Pharmacologic cavernosometry, prevention trial in castrated rats (Experiment 2). Format: in vivo, rat. As to conditions: castrated rats treated at castration, cavernosometry 9 weeks after castration. The source says:
For the prevention trial of VEGF in rats with venogenic erectile ED, adult males were castrated and immediately treated with hormone, intracavernosal VEGF. […] Control animals received an silastic implant containing saline (n=3), an intracavernous injection of normal saline (n=3) or an […] transfection vector expressing lacZ reporter gene without the VEGF gene (AAV-LacZ, n=11).
A 1.5 cm oblique incision was made in the lower abdominal skin extending from the midline just above the penile hilum to below the level of the glans about 1 cm lateral to the midline. The skin was sharply dissected from the anterior surface of the penis and then the penis was retracted anteriorly using a towel clamp placed around it atraumatically with the foreskin left intact. Using blunt dissection the penile base and crura were exposed. The ischiocavernosus muscles were sharply dissected off the anterior surface of the crus until the white of the tunica albuginea of the corpora cavernosa was identified. The crus was then gently cannulated using a 23 gage butterfly needle, and saline flush with a visual erectile response was used to confirm that the needle tip was truly intracavernosal. The intracavernosal injections were then administered with either VEGF protein (Calbiochem, La Jolla, Calif. #676472) at the dosage 4 ug/injection (in 0.1 cc PBS with 0.1% BSA), AAV-VEGF (10^10 viral particles in 0.1 cc NS), AAV-LacZ (10^10 viral particles in 0.1 cc NS), or 0.1 ml NS alone. The AAV-VEGF and AAV-LacZ constructs were a generous gift from Dr. Yuet W. Kan (Howard Hughes Medical Research Institute, San Francisco, Calif.).^19,20 Following injection, the needle was left in place for 5 minutes and then removed to allow the medication to diffuse throughout the cavernosal space. Immediately thereafter, pinpoint electrocautery was applied to the needle hole for hemostasis and then the wound was closed and the animal recovered as above.
(§1) Following castration, testosterone- or saline-filled silastic implants were placed in the subcutaneous tissue of the anterior abdominal wall, as previously described.^17 Implants were prepared using sterile silastic tubing (Dow Coming, Midland, Mich. #602-265, inner diameter 0.062″) that was filled with testosterone propionate powder (Sigma Chemical, St. Louis, Mo.) with the aid of wall suction.
To perform pharmacologic cavemosometry, both the right and left crura were separately cannulated using 23 gauge butterfly needles as described above. One cannula was flushed with sterile heparinized saline (100 U heparin/ml NS) and attached to a pressure detector for continuous intracorporal pressure (ICP) monitoring as previously described.^11 The contralateral cannula was attached to an infusion pump (Harvard Pump, Southwick, Mass. #55-2222), filled with sterile dilute heparinized saline (20 U heparin/ml NS). The baseline ICP was recorded (flaccid ICP) and then a dose of papavarine (1 mg in 0.1 cc NS) was administered through the infusion cannula. Five minutes was allowed for the papavarine to diffuse throughout the corpora and then the infusion cannula was flushed with heparinized saline and the pressure monitor cannula vented to normalize ICP after flushing. After 5 minutes more, the ICP was again recorded (ICP after papavarine) and the infusion started. An infusion rate of 0.05 ml/min was started and increased (by 0.05 ml/min every 10 seconds) until the ICP started to rise. Subsequent increases in inflow rate were made only after the ICP reached a plateau pressure. By slowly adjusting the inflow rate, an intracorporal pressure of 100 cm H2O (erectile pressure) was reached and the infusion rate required to maintain this pressure recorded (the maintenance rate). After this pressure was steady for 20 seconds, the infusion was terminated and the change in ICP over the subsequent 60 seconds was recorded (the drop rate).

In data set [2] the test system is dorsal nerve, intracavernous smooth muscle cells and endothelial cells. The experiment in a line: Transmission electron microscopy of penile tissue (Example 2). To be noted: castrated rats, testosterone replacement. Format: in vivo, rat. The source says: Thick sections were cut and stained with toluidine blue to select specific areas for thin sectioning. Thin sections were cut, stained with both uranyl acetate and Reynold's Lead, and examined under the Phillips Tecnai 10 transmission electron microscope. Penile tissues from 4 randomly chosen rats in each subgroups were subjected to electron microscopic examinations.

The subject of data set [3] is penile smooth muscle (alpha actin). Nature of the data set: Alpha-smooth muscle actin immunohistochemistry of rat penis with image analysis. Format: in vivo. To be noted: castrated rats.
Experimental: Frozen sections were cut at 10 microns, adhered to charged slides, air dried for 15 minutes then rehydrated with 0.05M PBS for 5 minutes. […] The serum solution was drained and then sections were incubated for 60 minutes with mouse monoclonal anti-alpha-smooth muscle actin (Sigma, St. Louis, Mo.) at a dilution of 1:4000 in PBS. […] Immunochemistry was performed in penile tissues from 4 rats randomly chosen from each subgroup.
Cross-sectional micrographs of the rat penis at the proximal shaft were examined after immunohistochemistry for alpha actin. Alpha actin, a marker for penile smooth muscle, stains brown and can be seen surrounding the sinusoidal spaces. […] Computerized image analysis with Adobe Photoshop was used to quantify the area of immunostaining by counting the number of digitized pixels corresponding to the area of brown staining, thereby providing some numerical comparison of the quantity of smooth muscle in each specimen.
A short description of data set [4]: Serum testosterone radioimmunoassay. Format: in vivo, rat. To be noted: castrated rats given subcutaneous testosterone implants. The procedure: as §1
In data set [5] the test system is major pelvic ganglia (MPG). Nature of the data set: Nerve fiber outgrowth from cultured major pelvic ganglia. Also on record: Average fiber length / FIBER LENGTH (average lengths of the growing fibers): unit not given here. Type of data set: cell-based, rat. As for the experimental part: Each freshly isolated MPG was cut into 8 pieces of approximately equal size and each piece was then attached to a Matrigel-coated coverslip. The MPG pieces were cultured in serum-free medium supplemented with phosphate-buffered saline (PBS, control), 50 ng/ml of vascular endothelial growth factor (VEGF), 20 ng/ml of brain-derived neurotrophic factor (BDNF), or VEGF+BDNF. After 2 days of incubation, the ganglial tissues with their outgrowing nerve fibers were stained for the expression of NADPH diaphorase and acetylcholinesterase (AchE).
We have been using several experimental systems to test the efficacy of combination growth factor therapies for impotence. One system employs cultured rat major pelvic ganglia (MPG) that are known to innervate all urogenital organs, including the penis. We discovered that the cultured MPG are able to sprout new nerve fibers (nerve regeneration) from the axonal ends during the first 3 days of culture, especially when treated with VEGF, BDNF, NT-3, or NT-4.

The test system of data set [6] is cavernous nerve injury in rats. Nature of the data set: Maximal intracavernous pressure after bilateral cavernous nerve freezing (Example 9, VENT). Type of data set: in vivo, rat. As to conditions: 3 months after bilateral cavernous nerve freezing, intracavernous injection. The procedure:
(§2) Three months old Sprague-Dawley rats (N=30) were used: 6 underwent a sham operation; 24 underwent bilateral cavernous nerve freezing and then randomly divided into four groups of 6 each. The four groups of rats received intracavernous injection of one of the following: 1) phosphate buffered saline (PBS), 2) VEGF protein (4 μg), 3) adeno-associated virus (AAV)-BDNF, and 4). VEGF+AAV-BDNF. Erectile function was assessed by cavernous nerve electrostimulation 3 months later and samples of penile tissue were obtained for electron microscopy and immunohistochemical studies.

Data set [7] concerns Erectile Dysfunction Induced by Hypercholesterolemia in a Rat Model. The experiment in a line: Erectile function in rats fed a high cholesterol diet (Example 5). Type of data set: in vivo. To be noted: 6 months cholesterol diet, 4 months after intracavernous treatment. As for the experimental part: Twenty-one Sprague-Dawley rats were used. All rats were fed a 2.5% cholesterol diet with added lard starting at 2 weeks of age for 6 months. The rats were divided into three groups. All groups after two months of a high cholesterol diet underwent serum evaluation of cholesterol and intracavernous injection of saline or treatment. Group 1, the control group, received intracavernous injection of saline, group 2, the VEGF group, received intracavernous injection of 4 ug of VEGF, and group 3, the AAV-BDNF group received 15 ug of BDNF. After six months of cholesterol diet and 4 months of treatment, all rats were subjected to cavernous nerve electrostimulation, cavernosometry with intracavernous papaverine injection, and infusion cavernosometry with heparinized saline to measure erectile function.

In data set [8] the test system is Animal Model for Neurogenic Impotence. The experiment in a line: Maximal intracavernous pressure on electrostimulation after bilateral cavernous nerve freezing (Example 3). Type of data set: in vivo, rat. To be noted: 8 weeks after bilateral cavernous nerve freezing. The source says: Male Sprague-Dawley rats (N=34; age, 3 months; weight, 350 to 400 gm.) were divided into two groups: sham (N=10) and experimental (N=24). The rats in the sham group underwent periprostatic dissection and identification of bilateral cavernous nerves without other manipulation; those in the experimental groups underwent bilateral cavernous nerve freezing. Several minutes after surgery, half of the experimental animals (LacZ group, N=12) received intracavernous AAV-LacZ injection, and the remainder (BDNF group, N=12) received AAV-BDNF. Half of the rats in each group were sacrificed at week 4 and the rest at week 8 for collection of penile tissue. In all animals, erectile function was assessed by electrostimulation of the cavernous nerves before sacrifice.
Under intraperitoneal pentobarbital sodium anesthesia (50 mg./kg.), each animal was placed on a heating pad to maintain its body temperature at 37° C. […]
At weeks 4 and 8 postoperatively, rats in each group were re-explored for direct electrostimulation of the cavernous nerves before tissue collection. […] Each cavernous nerve was stimulated and intracavernous pressures were measured and recorded with a Macintosh computer programmed with LabVIEW 4.0 software (National Instruments, Austin, Tex.). The pressure for each animal was determined by the mean of both sides.

Data set [9] relates to NADPH diaphorase-positive nerve fibers and neurons. The experiment in a line: NADPH diaphorase staining of penile tissue and major pelvic ganglia. Type of data set: in vivo, rat. As for the experimental part:
Sections were incubated with 0.1 mM. NADPH, 0.2 mM. nitroblue tetrazolium, 0.2% Triton X-100 in 0.1 M. PO4, pH 8.0, for 60 min. at room temperature. The reaction was terminated by washing in buffer. Slides were then coverslipped with buffered glycerin as the mounting medium.^13
The presence of NADPH diaphorase-positive nerves was evidenced as a blue stain in the major pelvic ganglia, dorsal nerves and cavernous tissue, and the staining pattern was assessed by counting the number of positive neurons in 4 random fields (magnification 400×). The percentage of darkly and lightly stained cells in the major pelvic ganglia was calculated by dividing the number of these cells by the total number of positive cells.

The subject of data set [10] is blood vessels and nerve fibers in the penis. Nature of the data set: Penile tissue histology, nNOS staining and electron microscopy (Example 9). Format: in vivo, rat. As to conditions: 3 months after bilateral cavernous nerve freezing. The procedure:
as §2

[11] abbreviates: 50 ng/ml VEGF, 20 ng/ml BDNF, 2 days of incubation.

For `CCC(=O)O[C@H]1CC[C@H]2[C@@H]3CCC4=CC(=O)CC[C@]4(C)[C@H]3CC[C@]12C` [Testosterone, testosterone propionate, reference compound], in data set [1], the “Drop Rate in 1 min.” value was 11.7(+/−16) cm H2O, the “Flaccid ICP” value is recorded as 28.9 cm H2O, the “ICP After Papavarine” value was 87.7(+/−26) cm H2O and the “Maintenance Rate” value is 0.09(+/−0.1) ml/min. The “nerve fibers and myelin sheath appearance” value in data set [2] is on record as “appeared similar to the sham group”. Besides, the “quantity of penile smooth muscle, qualitative” value in [3] is “returns to normal morphology”. Further, the serum testosterone titer entry in [4] was “in the normal range”.

B1: NT-4: neurotrophin-4 (protein, UniProt P34130 81-210, looked up)
Neurotrophin-4: GVSETAPASRRGELAVCDAVSGWVTDRRTAVDLRGREVEVLGEVPAAGGSPLRQYFFETRCKADNAEEGGPGAGGGGCRGVDRRHWVSECKAKQSYVRALTADAQGRVGWRWIRIDTACVCTLLSRTGRA
As to B1, the “FIBER LENGTH (average lengths of the growing fibers)” value in data set [5] (48 hours after culturing) stood at 81.

B2: BDNF: brain-derived neurotrophic factor added to MPG culture medium (Examples 7, 8) (protein, UniProt P23560 19-247, looked up)
Neurotrophic factor BDNF …: APMKEANIRGQGGLAYPGVRTHGTLESVNGPKAGSRGLTSLADTFEHVIEELLDEDQKVRPNEENNKDADLYTSRVMLSSQVPLEPPLLFLLEEYKNYLDAANMSMRVRRHSDPARRGELSVCDSISEWVTAADKKTAVDMSGGTVTVLEKVPVSKGQLKQYFYETKCNPMGYTKEGCRGIDKRHWNSQCRTTQSYVRALTMDSKKRIGWRFIRIDTSCVCTLTIKRGR
For B2, the “maximal intracavernous pressure (MICP), mean±SEM” value in data set [6] is listed as 69.75±8.54 cm H2O. In addition, in [7], the “sustained intracavernous pressures during the pharmacologic erection phase of cavernosometry, vs high cholesterol controls” value is listed as “significantly higher”. Besides, the “Maximal intracavernous Pressure In Response to Electrostimulation” value in [8] worked out at 61.3 ± 12.5 cm H2O. Also, in data set [9] (4 Weeks), the “NADPH Diaphorase-positive Nerve Fibers, Cavernous Tissue” value was 45.5 ± 10.5; the “NADPH Diaphorase-positive Nerve Fibers, Dorsal Nerve” value is 65.5 ± 15.5; the “NADPH Diaphorase-positive Neurons in the Major Pelvic Ganglion, % Dark Stain” value amounted to 62.1 ± 13.1 %; the “NADPH Diaphorase-positive Neurons in the Major Pelvic Ganglion, % Light Stain” value came out at 38.6 ± 11.8%. For the same molecule, in [9] (4 Weeks), the “NADPH Diaphorase-positive Neurons in the Major Pelvic Ganglion, Dark Stain” value was 61.8 ± 23.7; the “NADPH Diaphorase-positive Neurons in the Major Pelvic Ganglion, Light Stain” value stood at 33.8 ± 9; the “NADPH Diaphorase-positive Neurons in the Major Pelvic Ganglion, Total” value was 95.7 ± 22.4. Also, in [9] (8 Weeks), the “NADPH Diaphorase-positive Nerve Fibers, Cavernous Tissue” value is recorded as 66.1 ± 15.2; the “NADPH Diaphorase-positive Nerve Fibers, Dorsal Nerve” value was found to be 86.4 ± 12.2; the “NADPH Diaphorase-positive Neurons in the Major Pelvic Ganglion, % Dark Stain” value is on record as 64.3 ± 10.7 %; the “NADPH Diaphorase-positive Neurons in the Major Pelvic Ganglion, % Light Stain” value was 35.6 ± 10.7%. For the same molecule, in data set [9] (8 Weeks), the “NADPH Diaphorase-positive Neurons in the Major Pelvic Ganglion, Dark Stain” value came out at 69.4 ± 21.1; the “NADPH Diaphorase-positive Neurons in the Major Pelvic Ganglion, Light Stain” value was found to be 38.4 ± 14; the “NADPH Diaphorase-positive Neurons in the Major Pelvic Ganglion, Total” value is reported as 107.8 ± 23.58. Further, in data set [10], the “nNOS positive nerve fibers in the dorsal nerves compared to PBS group” value was “increased number”. In data set [5] (setting [11]), the AchE staining intensity was 1,102±211 IDV and the NADPH staining intensity is recorded as 9,376±111 IDV.
